Literature values, collected in paper PMC3076733.

Biological target: Obscurin Rho-GEF (Homo sapiens) (UniProt Q5VST9)
Sequence of UniProt Q5VST9 (Q5VST9 5700-5884): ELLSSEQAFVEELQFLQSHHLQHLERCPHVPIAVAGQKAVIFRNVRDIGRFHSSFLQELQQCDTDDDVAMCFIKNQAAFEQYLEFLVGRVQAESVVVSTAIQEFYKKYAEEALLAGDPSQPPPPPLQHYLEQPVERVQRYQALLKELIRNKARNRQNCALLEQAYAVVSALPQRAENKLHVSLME

Kd: 2000 nM
Substance: RanBP9 (from UniProt Q96S59)
